For the assay, the target named is cell-bound C4b (on EAC4 or EAC14 cells) (human) (UniProt P0C0L4). Kind of assay: radioligand binding.

B1: C2 (natural protein)
chain: APSCPQNVNISGGTFTLSHGWAPGSLLTYSCPQGLYPSPASRLCKSSGQWQTPGATRSLSKAVCKPVRCPAPVSFENGIYTPRLGSYPVGGNVSFECEDGFILRGSPVRQCRPNGMWDGETAVCDNGAGHCPNPGISLGAVRTGFRFGHGDKVRYRCSSNLVLTGSSERECQGNGVWSGTEPICRQPYSYDFPEDVAPALGTSFSHMLGATNPTQKTKESLGRKIQIQRSGHLNLYLLLDCSQSVSENDFLIFKESASLMVDRIFSFEINVSVAIITFASEPKVLMSVLNDNSRDMTEVISSLENANYKDHENGTGTNTYAALNSVYLMMNNQMRLLGMETMAWQEIRHAIILLTDGKSNMGGSPKTAVDHIREILNINQKRNDYLDIYAIGVGKLDVDWRELNELGSKKDGERHAFILQDTKALHQVFEHMLDVSKLTDTICGVGNMSANASDQERTPWHVTIKPKSQETCRGALISDQWVLTAAHCFRDGNDHSLWRVNVGDPKSQWGKEFLIEKAVISPGFDVFAKKNQGILEFYGDDIALLKLAQKVKMSTHARPICLPCTMEANLALRRPQGSTCRDHENELLNKQSVPAHFVALNGSKLNINLKMGVEWTSCAEVVSQEKTMFPNLTDVREVVTDQFLCSGTQEDESPCKGESGGAVFLERRFRFFQVGLVSWGLYNPCLGSADKNSRKRAPRSKVPPPRDFHINLFRMQPWLRQHLGDVLNFLPL
B1: the maximum percent of bound 125I-C4-bp released by C2 amounted to 50%.

B2: radiolabelled C4-binding protein (125I-C4-bp or 131I-C4-bp) (natural protein)
chain: NCGPPPTLSFAAPMDITLTETRFKTGTTLKYTCLPGYVRSHSTQTLTCNSDGEWVYNTFCIYKRCRHPGELRNGQVEIKTDLSFGSQIEFSCSEGFFLIGSTTSRCEVQDRGVGWSHPLPQCEIVKCKPPPDIRNGRHSGEENFYAYGFSVTYSCDPRFSLLGHASISCTVENETIGVWRPSPPTCEKITCRKPDVSHGEMVSGFGPIYNYKDTIVFKCQKGFVLRGSSVIHCDADSKWNPSPPACEPNSCINLPDIPHASWETYPRPTKEDVYVVGTVLRYRCHPGYKPTTDEPTTVICQKNLRWTPYQGCEALCCPEPKLNNGEITQHRKSRPANHCVYFYGDEISFSCHETSRFSAICQGDGTWSPRTPSCGDICNFPPKIAHGHYKQSSSYSFFKEEIIYECDKGYILVGQAKLSCSYSHWSAPAPQCKALCRKPELVNGRLSVDKDQYVEPENVTIQCDSGYGVVGPQSITCSGNRTWYPEVPKCEWETPEGCEQVLTGKRLMQCLPNPEDVKMALEVYKLSLEIEQLELQRDSARQSTLDKEL
modifications: 125I or 131I label (iodinated by means of Enzymobeads)
As to B2, the Ka was found to be 4.6e+08 M⁻¹, the percent of 125I-C4-bp incorporated into the cells worked out at 10.5%, the percent of bound C4-bp released in the absence of C2 stood at 8% and the stoichiometry N (C4-bp molecules bound per C4b molecule) amounted to 0.43.
